We go through two molecules from PMC7840522, “Ca14-3-3 Interacts With CaWRKY58 to Positively Modulate Pepper Response to Low-Phosphorus Starvation”.

Data set [1] concerns the target Ca14-3-3-GFP (pepper (Capsicum annuum)). Briefly: MST; 20 nM Ca14-3-3-GFP as target, CaWRKY58-6 × His as ligand serially diluted (1.0E^-10 to 1.0E^-3 mM), 10 min in interaction buffer, Monolith NT.115, 50% IR laser power, ambient temperature.
The target of data set [2] is T1, CaWRKY58-6xHis (Capsicum annuum, UniProt Q5DJV3 1-378).
T1 sequence: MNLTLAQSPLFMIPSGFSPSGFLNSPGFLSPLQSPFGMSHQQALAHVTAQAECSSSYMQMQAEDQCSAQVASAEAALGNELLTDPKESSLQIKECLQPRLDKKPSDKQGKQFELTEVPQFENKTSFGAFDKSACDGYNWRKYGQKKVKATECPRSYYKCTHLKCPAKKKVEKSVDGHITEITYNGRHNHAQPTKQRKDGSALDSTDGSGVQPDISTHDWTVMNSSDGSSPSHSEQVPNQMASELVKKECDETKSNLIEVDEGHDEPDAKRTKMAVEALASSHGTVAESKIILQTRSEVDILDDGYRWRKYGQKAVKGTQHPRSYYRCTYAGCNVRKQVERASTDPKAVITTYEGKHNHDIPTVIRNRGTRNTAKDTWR
Briefly: EMSA; not stated in the material (EMSA as in cited works; Cy5 probes, Odyssey CLX). The note with it: protein: recombinant; tags: 6xHis (pDEST17; text says N-terminal 6xHis); label: Cy5.

Molecule CaWRKY58-6 × His (GFP fusion protein) displayed a Kd in data set [1] of 210 nM.

B1: mCaPHR1-P (mCaPHR1-Pcy5) (dsDNA)
DNA 1: AAACTATGCTCCTACATCTAAATTT
DNA 2: AAATTTAGATGTAGGAGCATAGTTT
Regarding B1, in data set [2], the binding result is on record as “no binding”.
